Results taken from patent US20220195068A1 (TENEOBIO, published 2022).
Where a chain is given by its changes, count along the chain named. Values belong to the binder of their own block, whether it stands above or below them.

Key:
[1] = biological target: T1, human PSMA (Prostate Specific Membrane Antigen, Glutamate Carboxypeptidase II) on cells (human, UniProt Q04609 1-750); assay: flow cytometry on LNCaP cells
T1 construct: whole, on cells; the cell line is named under assay; also called cell surface expressed PSMA; FOLH1
T1 sequence (Q04609 whole entry): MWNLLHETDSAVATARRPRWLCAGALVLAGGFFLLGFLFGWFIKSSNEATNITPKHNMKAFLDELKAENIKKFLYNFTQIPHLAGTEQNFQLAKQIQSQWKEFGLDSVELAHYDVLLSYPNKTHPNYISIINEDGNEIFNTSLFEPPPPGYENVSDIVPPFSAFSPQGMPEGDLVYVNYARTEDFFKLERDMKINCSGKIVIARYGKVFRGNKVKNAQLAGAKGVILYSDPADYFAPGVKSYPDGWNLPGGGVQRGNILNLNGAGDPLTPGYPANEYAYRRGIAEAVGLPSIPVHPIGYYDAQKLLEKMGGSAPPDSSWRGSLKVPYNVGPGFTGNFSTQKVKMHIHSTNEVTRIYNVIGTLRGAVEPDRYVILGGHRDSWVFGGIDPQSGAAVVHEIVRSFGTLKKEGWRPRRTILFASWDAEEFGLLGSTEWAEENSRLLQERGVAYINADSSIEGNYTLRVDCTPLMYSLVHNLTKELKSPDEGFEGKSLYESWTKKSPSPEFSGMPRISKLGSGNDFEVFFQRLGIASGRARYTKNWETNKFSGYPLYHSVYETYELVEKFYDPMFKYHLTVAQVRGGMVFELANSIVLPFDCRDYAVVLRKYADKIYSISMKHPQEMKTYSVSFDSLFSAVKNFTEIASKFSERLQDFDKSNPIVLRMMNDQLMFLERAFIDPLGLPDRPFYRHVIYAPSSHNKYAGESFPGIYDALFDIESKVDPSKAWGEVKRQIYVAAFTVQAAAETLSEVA
Description: Briefly, 50,000 target cells were stained with a dilution series of purified UniAbs™ for 30 minutes at 4° C. Following incubation, the cells were washed twice with flow cytometry buffer (1X PBS, 1% BSA, 0.1% NaN₃) and stained with goat F(ab')₂ anti-human IgG conjugated to R-phycoerythrin (PE) (Southern Biotech, cat. #2042-09) to detect cell-bound antibodies. After a 20-minute incubation at 4° C., the cells were washed twice with flow cytometry buffer and the mean fluorescence intensity (MFI) was measured by flow cytometry. The MFI of cells stained with secondary antibody alone were used for determination of background signal and binding of each antibody was converted to fold over background. Binding to cynomolgus PSMA positive cells was determined using the same protocol with the following modifications: the target cells were from Freestyle 293-F cells (ThermoFisher R79007) transiently transfected to express the extracellular domain of cynomolgus PSMA. In some experiments EC50 values were calculated using GraphPad Prism 7.

[2] = biological target: T1, human PSMA (Prostate Specific Membrane …); assay: flow cytometry cell binding, PC3-PSMA cells
[3] = biological target: T1, human PSMA (Prostate Specific Membrane …); assay: cell-based or functional assay
[4] = biological target: T1, human PSMA (Prostate Specific Membrane …); assay: flow cytometry cell binding, MDA-PCa-2b cells
[5] = biological target: T1, human PSMA (Prostate Specific Membrane …); assay: flow cytometry cell binding, 22Rv1 cells
[6] = biological target: T1, human PSMA (Prostate Specific Membrane …); assay: flow cytometry cell binding, LNCAP cells

- fold over the background MFI signal [1]: 64 fold over background
B2: anti-PSMA heavy chain antibody clone ID 325932 (antibody, V domains shown)
VH: QVQLVESGGGVVQPGRSLRLSCAASGFSFSSYGMHWVRQAPGKGLEGVAVIWYDGSNRYYADSVKGRFTISRDNSKNTLYLQMNSLRAEDTAVYYCAREPRIGYYYESSGYYSLDYRGQGTLVTVSS
notes: heavy chain-only antibody (UniAb), no light chain

- fold over the background MFI signal [1]: 13 fold over background
B3: anti-PSMA heavy chain antibody clone ID 345510 (antibody, V domains shown)
VH: B2 VH with G47W, R58K, L79M
notes: as for B2

- EC50 [2]: 30 nM
- IFNγ EC50, 22Rv1 cells [3]: 174 nM
- IFNγ EC50, LNCAP cells [3]: 63 nM
- IFNγ EC50, MDA-PCa-2b cells [3]: 116 nM
- IFNγ EC50, PC3-PSMA cells [3]: 10.1 nM
- IL-2 EC50, LNCAP cells [3]: 575 nM
- IL-2 EC50, MDA-PCa-2b cells [3]: 38.5 nM
- IL-2 EC50, PC3-PSMA cells [3]: 4.1 nM
- EC50 [4]: 28 nM
- EC50 [5]: 58 nM
- EC50 [6]: 17 nM
B6: 346181xCD3 monoparatopic PSMAxCD3 bispecific antibody (bispecific antibody, human IgG4 S228P, kappa, F234A L235A)
heavy 1: QLQLQESGPGLVKPSETLSLTCTVSGGSISSSNYFWGWIRQSPGKGLEWIGSIDYSGYTYYNPSLKSRVTISVDTSKNQFSLKLSSVTAADTAVYNCARHKAATADFDYRGQGTLVTVSSESKYGPPCPPCPAPEAAGGPSVFLFPPKPKDTLMISRTPEVTCVVVDVSQEDPEVQFNWYVDGVEVHNAKTKPREEQFNSTYRVVSVLTVLHQDWLNGKEYKCKVSNKGLPSSIEKTISKAKGQPREPQVYTLPPSQEEMTKNQVSLSCAVKGFYPSDIAVEWESNGQPENNYKTTPPVLDSDGSFFLVSRLTVDKSRWQEGNVFSCSVMHEALHNHYTQKSLSLSLGK
heavy 2: EVQLVESGGGLVQPGRSLRLSCAASGFTFDDYAMHWVRQAPGKGLEWVSGISWNSGSIGYADSVKGRFTISRDNAKNSLYLQMNSLRAEDTALYYCAKDSRGYGDYRLGGAYWGQGTLVTVSSASTKGPSVFPLAPCSRSTSESTAALGCLVKDYFPEPVTVSWNSGALTSGVHTFPAVLQSSGLYSLSSVVTVPSSSLGTKTYTCNVDHKPSNTKVDKRVESKYGPPCPPCPAPEAAGGPSVFLFPPKPKDTLMISRTPEVTCVVVDVSQEDPEVQFNWYVDGVEVHNAKTKPREEQFNSTYRVVSVLTVLHQDWLNGKEYKCKVSNKGLPSSIEKTISKAKGQPREPQVYTLPPSQEEMTKNQVSLWCLVKGFYPSDIAVEWESNGQPENNYKTTPPVLDSDGSFFLYSRLTVDKSRWQEGNVFSCSVMHEALHNHYTQKSLSLSLGK
light: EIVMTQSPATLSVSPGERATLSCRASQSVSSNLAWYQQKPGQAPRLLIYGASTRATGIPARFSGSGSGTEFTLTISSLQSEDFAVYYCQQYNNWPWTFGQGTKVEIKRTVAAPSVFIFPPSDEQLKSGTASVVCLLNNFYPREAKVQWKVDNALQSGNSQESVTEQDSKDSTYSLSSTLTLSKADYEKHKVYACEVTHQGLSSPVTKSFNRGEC
notes: three-chain antibody-like molecule; also called monoparatopic molecule
- Kill EC50, 22Rv1 cells, resting T-cells [3]: 52.8 nM
- Kill EC50, LNCAP cells, resting T-cells [3]: 14.6 nM
- Kill EC50, MDA-PCa-2b cells, resting T-cells [3]: 23.6 nM
- Kill EC50, PC3-PSMA cells, resting T-cells [3]: 3.7 nM

More lines, now with the values behind:

B1: anti-PSMA heavy chain antibody clone ID 345505 (antibody, V domains shown)
VH: B2 VH with S28T, S30I
notes: as for B2
- fold over the background MFI signal [1]: 59 fold over background

B4: anti-PSMA heavy chain antibody clone ID 345509 (antibody, V domains shown)
VH: B2 VH with V11L, R16G, R58K, L79M
notes: as for B2
- fold over the background MFI signal [1]: 37 fold over background

B5: anti-PSMA heavy chain antibody clone ID 345508 (antibody, V domains shown)
VH: B2 VH with L45P, G47W
notes: as for B2
- fold over the background MFI signal [1]: 55 fold over background

B7: 350123xCD3 biparatopic PSMAxCD3 multi-specific antibody (bispecific antibody, human IgG4 S228P, kappa, F234A L235A)
heavy 1: QLQLQESGPGLVKPSETLSLTCTVSGGSISSSNYFWGWIRQSPGKGLEWIGSIDYSGYTYYNPSLKSRVTISVDTSKNQFSLKLSSVTAADTAVYNCARHKAATADFDYRGQGTLVTVSSGGGGSGGGGSQVQLVESGGGVVQPGRSLRLSCAASGFSFSRYGMHWVRQAPGKGLEGVAVIWYDGSNRYYADSVKGRFTISRDNSKNTLYLQMNSLRAEDTAVYYCAREPRIGYYYESSGYYSLDYRGQGTLVTVSSESKYGPPCPPCPAPEAAGGPSVFLFPPKPKDTLMISRTPEVTCVVVDVSQEDPEVQFNWYVDGVEVHNAKTKPREEQFNSTYRVVSVLTVLHQDWLNGKEYKCKVSNKGLPSSIEKTISKAKGQPREPQVYTLPPSQEEMTKNQVSLSCAVKGFYPSDIAVEWESNGQPENNYKTTPPVLDSDGSFFLVSRLTVDKSRWQEGNVFSCSVMHEALHNHYTQKSLSLSLGK
heavy 2: B6 heavy 2
light: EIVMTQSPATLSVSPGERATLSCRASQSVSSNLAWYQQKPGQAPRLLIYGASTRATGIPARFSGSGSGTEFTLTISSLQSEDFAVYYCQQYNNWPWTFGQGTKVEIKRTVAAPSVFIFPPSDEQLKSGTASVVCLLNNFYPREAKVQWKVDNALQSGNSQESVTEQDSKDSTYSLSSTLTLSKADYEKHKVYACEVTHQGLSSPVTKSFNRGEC
notes: also called biparatopic molecule
- EC50 [2]: 6 nM
- IFNγ EC50, 22Rv1 cells [3]: 380 nM
- IFNγ EC50, LNCAP cells [3]: 3.29 nM
- IFNγ EC50, MDA-PCa-2b cells [3]: 0.9 nM
- IFNγ EC50, PC3-PSMA cells [3]: 1.01 nM
- IL-2 EC50, LNCAP cells [3]: 3.73 nM
- IL-2 EC50, MDA-PCa-2b cells [3]: 1.11 nM
- IL-2 EC50, PC3-PSMA cells [3]: 1.1 nM
- Kill EC50, 22Rv1 cells, resting T-cells [3]: 0.42 nM
- Kill EC50, LNCAP cells, resting T-cells [3]: 0.84 nM
- Kill EC50, MDA-PCa-2b cells, resting T-cells [3]: 0.41 nM
- Kill EC50, PC3-PSMA cells, resting T-cells [3]: 0.4 nM
- EC50 [4]: 2 nM
- EC50 [5]: 3 nM
- EC50 [6]: 2 nM
